Target: human Claudin18.2 (human)
Assay: cell-based or functional assay

Binder	CDC % Relative activity	CDC EC50
243F6D2 (antibody, V domains shown) VH: QAYLQQSGAELVRSGASVKMSCRASGYTFTSHNMHWVKQTPGQGLEWIGYIYPGNGGTYYNQKFKGKATLTADTSSSTAYMQISSLTSEDSAVYFCARDYYGNSFVYWGQGTLVTVSA VL: DVVMTQSPSSLTEKTGEKVSMSCKSSQSLLNSGNQKNYLTWYQQKPGQPPKLLIYWASTRESGVPDRFTGSGSGTDFTLTISSLQTEDLAVYYCQNNYRYPFTFGAGTKLELK	70.5%	2 mg/L
237D2A4 (antibody, V domains shown) VH: QVQLKESGPGLVAPSQSLSITCTVSGFSLTSYGVSWVRQPPGKGLEWLGVIWGDGSTNYHSTLISRLRISKDKSKSQVFLKLNSLQTDDTATYYCAKAGRGNALDYWGQGTSVTVSS VL: DIVMTQSPSSLTVTAGEKVTMSCKSSQSLLNSGNQKNYLTWYQQKPGQPPKLLIYWASTRESGVPDRFTGSGSGTDFTLTISSVQAEDLAVYYCQNDYSFPLTFGAGTKLELK	629%	0.221 mg/L
242F5H2 (antibody, V domains shown) VH: EVMLVESGGGLVKPGGSLKLSCAASGFTFSSYTVSWVRQTPEKRLEWVATSIVGSTYTYFPDSVKGRFTISRDFAKNTLFLQMSSLRSEDTAMYYCSRLGRGNAMDYWGQGTSVSVSS VL: DIVMTQSPSSLTVTAGEKVTLNCRSSQSLLNSGNQKNYLTWYQQKPGQPPKLLIYWASTRESGVPDRFTGSGSGTDFTLTISSVQADDLAVYYCQNGYSYPFTFGSGTKLEIK	149%	0.944 mg/L
240F8G2 (antibody, V domains shown) VH: QAYLQQSGAELVRSGASVKMSCKASGYTFTNYNIHWVKQTPGQGLEWIGYIYPGNGGNYYNQKFKGKATLTADTSSSTAYMQISSLTSEDSAVYFCARDYYGNSFAYWGQGTLVTVSA VL: DIVVTQSPSSLTVTAGEKVTMNCKSSQSLLNSGNQKNYLTWYQQKPGQPPKLLIYWASTRESGVPDRFTGSGSGTDFTLTISSVQAEDLAIYYCQNDYYYPLTFGAGTKLELK	126%	1.1 mg/L
246B5F2 (antibody, IgM, V domains shown) VH: EVMLVESGGGLMKPGGSLKLSCAASEFTFSNYAMSWVRQTPEKRLEWVATISSGRSSTYYPDSVKGRFTISRDNAKNTLYLQMSSLRSEDTAMYYCAGLGRGNAMEYWGQGTSVTVSS VL: DIVMTQSPSSLTVTAGEKVTLSCKSSQSLLNSGNQKNYLTWYQQKPGQPPKLLIYWASTRESGVPDRFTGSGSGTDFILTINSVQAEDLAVYYCQNAYSYPFTFGSGTKLEIK	787%	0.179 mg/L
186F7E10 (antibody, V domains shown) VH: EVMLVESGGGLVKPGGSLKLSCAASRFTLNSYAMSWIRQTPEKKLEWVATITSGVSHTYYFDSVKGRFTISRDTAKNTLNLQMNSLRSEDTAVYYCARLYYGNSLDYWGQGTSVTVSS VL: DIVMTQSPSSLTVTAGEKVTVSCKSSQSLLNSGNQKNYLTWYQQKPGQPPKLLIYWASTRESGVPDRFTGSGSGTDFTLTISSVQSEDLAVYYCQNNYIYPLTFGAGTTLELK	124%	1.27 mg/L
244A1B8 (antibody, V domains shown) VH: QAYLQQSGAELVRSGASVKMSCKASGYTFTSHNIHWVKQTPGQGLEWIGYIYPGNGAPNYNQKFRGKATLTADTSSSTAYMQISSLTSEDSAVYFCARDYYGNSFVYWGQGTLVTVSA VL: DIVMTQSPSSLTEKAGEKVSMSCKSSQSLLNSGNQKNYLTWYQQKPGQPPKLLIYWASTRESGVPDRFTGSGSGTDFTLTISSVQAEDLAVYYCQNDYRYPFTFGAGTKLELK	102%	1.39 mg/L
240A8E7 (antibody, V domains shown) VH: QAYLQQSGAELVRSGASVKMSCKASGYTFTNYNIHWVKQTPGQGLEWIGYIYPGNGDNYYNQKFKGKATLTADTSSSTAYMQISSLTSEDSAVYFCARDYYGNSFAYWGQGTLVTVSA VL: DVVMTQSPSSLTVTAGEKVTMNCKSSQSLLNSGNQKNYLTWYQQKPGQPPKMLIYWASTRESGVPDRFTGSGSGTDFTLTISSVQAEDLAIYYCQNDYYYPFTFGAGTKLELK	120%	1.16 mg/L
241H10A1 (antibody, V domains shown) VH: QVQLQQSGAELVKPGASVKLSCKASGYTFTSFGINWLRQRPEQGLEWIGWIFPGDGNSKYNENFKGKATLTTDKSSSTAYMQVTRLTSEDSAVYFCARFYYGNSFANWGQGTLVTVSA VL: DIVMTQSPSSLTVTAGEKVTMSCKSSQSLLNSGNQKNYLTWYQQKPGQPPKLLIYWAATRESGVPDRFTGSGSGTDFTLTISSVQAEDLAVYYCQNDYFYPFTFGGGTKLELK	625%	0.225 mg/L

Next, values leading:

CDC % Relative activity	CDC EC50	Binder
161%	0.876 mg/L	248E6A7 (antibody, V domains shown) VH: QAYLQQSGAELVRSGASVKMSCRASGYTFTSHNMHWVKQTPGQGLEWIGYIYPGNGNTYYNQKFKVKATLTADTSSNTAYMQINSLTSEDSAVYFCVRDYYGNSFVYWGQGTLVTVSA VL: DVVMTQSPSSLTEKTGEKVTMTCKSSQSLLNSGNQKNYLAWYQQKPGQPPKLLIYWASTRESGVPDRFIGSGSGTDFTLTISSLQTEDLAVYYCQNNYMYPFTFGAGTKLELK
119%	1.17 mg/L	240D6F5 (antibody, V domains shown) VH: QAYLQQSGAELVRSGASVKMSCKASGYTFTSHNMHWVKQTPGQGLEWIGYIYPGNGGTNYNQKFKGKATLTADPSSSTAYMQINSLTSEDSAVYFCTRDYYGNSFAYWGQGTLVTVSA VL: DIVMTQSPSSLTEKAGERVSMSCKSSQSLFNSGNQKNYLTWYQQKPGQPPKLLIYWASTRESGVPDRFTGSGSGTDFTLTISSVQAEDLAVYYCQNDYRYPFTFGAGTKLELK
134%	1.05 mg/L	243B4F2 (antibody, V domains shown) VH: QAYLQQSGAELVRSGASVKMSCKASGYTFTSHNLHWVKQTPGQGLEWIGYIYPGNGNTNYNQKFKGKATLTADTSSSTAYMQISSLTSEDSAVYFCTRDYYGNSFAYWGQGTLVTVSA VL: DIVMTQSPSSLTEKAGERVSMSCKSSQSLFNSGNQKNYLTWYQQKPGQPPKLLIYWASTRESGVPDRFTGSGSGTDFTLTISSVQAEDLAVYYCQNNYWFPFTFGAGTKLELK
112%	1.26 mg/L	242H12D6 (antibody, V domains shown) VH: QAYLQQSGAELVRSGASVKMSCKASGYTFTSHNMHWVKQTPGQGLEWIGYIYPGNGGTNYNQKFKGKATLTADTSSSTAYMQINSLTSEDSAVYFCTRDYYGNSFAYWGQGTLVTVSA VL: DIVMTQSPSSLTEKAGERVSMSCKSSQSLFNSGNQKNYLTWYQQKPGQPPKLLIYWASTRESGVPDRFTGSGSGTDFTLTISSVQAEDLAVYYCQNDYRYPFTFGAGTKLELK
102%	1.36 mg/L	239H12G9 (antibody, V domains shown) VH: QAYLQQSGAELVRSGASVKMSCKASGYTFTSHNIHWVKQTPGQGLEWIGYIYPGNGAPNYNQKFRGKATLTADTSSSTAYMQISSLTSEDSAVYFCARDYYGNSFVYWGQGTLVTVSA VL: DIVMTQSPSSLTEKAGEKVSMSCKSSQSLLNSGNQKNYLTWYQQKPGQPPKLLIYWASTRESGVPDRFTGSGSGTDFTLTISSVQAEDLAVYYCQNDYRYPFTFGAGTKLELK
149%	0.941 mg/L	243B4F7 (antibody, V domains shown) VH: QAYLQQSGAELVRSGASVKMSCKASGYTFTSHNLHWVKQTPGQGLEWIGYIYPGNGNTNYNQKFKGKATLTADTSSSTAYMQISSLTSEDSAVYFCTRDYYGNSFAYWGQGTLVTVSA VL: DIVMTQSPSSLTEKAGERVSMSCKSSQSLFNSGNQKNYLTWYQQKPGQPPKLLIYWASTRESGVPDRFTGSGSGTDFTLTISSVQAEDLAVYYCQNNYWFPFTFGAGTKLELK

Target: T1, human Claudin18.2 (human)
T1 construct: also called CLDN18.2
Assay: cell ELISA, Claudin18.2-expressing HEK293T cells
Description: To determine protein binding EC₅₀ by Cell ELISA, 96-well U-bottom microplates were pre-blocked with blocking buffer (5% MPBS, 1×PBS with 5% skim milk) overnight at 4° C. On the next day, the Claudin18.2-expressing HEK293T stable cell line was suspended at 1.5×10⁶ cells/ml in blocking buffer, added to the plate in 100 μl/well and incubated at room temperature for 1 hour.
Raw data were plotted with GraphPad Prism v6.02 software with four parameters, best-fit value program to analyze the EC₅₀.

EC50	Binder
1.01 nM	200A4H8 (antibody, V domains shown, mouse hybridoma mAb) VH: QVQLKQSGPGLVQPSQSLSITCTVSGFSLTRYGVHWVRQSPGKGLEWLGVIWSGGNTDYNAAFISRLNIRKDNSKSQVFFKMNSLKPNDTAIYYCARAAYFGNSFDYWGQGTTLTVSS VL: DIVMTQSPSSLPVTAGEKVTMSCKSSQSLLNSGNQKNYLTWYQQKPGQPPKLLIYWASTRDSGVPDRFTGSGSGTDFTLTISSVQAEDLAVYYCQNNYIYPLTFGAGTKLELK
0.822 nM	207F8G5 (antibody, V domains shown, mouse hybridoma mAb) VH: QAYLQQSGAELVRSGASVKMSCKASGFTFTSYNIHWVKQTPGQGLEWIGYISPGNGGSNYNLKFKDKATLTSATSSSTAYMQISSLTSEDSAVYFCATGRGFAYWGQGTLVTVSA VL: DIVMTQSPSSLTVTPGEKVTMSCKSSQSLFNSGNQKNYLIWYQQKPGQPPKLLIYRASTRDSGVPDRFTGSGSGTDFTLTISNVQAEDLAIYYCQNDYSYPLTFGAGTKLELK
0.651 nM	232C5E3 (antibody, V domains shown, mouse hybridoma mAb) VH: QAYLQQSGAELVRSGASVKMSCKASGYTFTSHNIHWIKQTPGKGLEWIGYIYPGNGGTNYNQKFKAKATLTADTSSSTAYMQISSLTSEDSAVYFCARDYYGNSFAYWGQGTLVTVSA VL: DIMMTQSPSSLTETAGEKVSMSCKSSQSLLNSGNQKNYLTWYQQKPGQPPKLLIYWASTRESGVPDRFSGSGSGTDFTLTISSVQAEDLAVYYCQNGYRFPFTFGAGTKLELK
0.283 nM	201F4H6 (antibody, V domains shown, mouse hybridoma mAb) VH: QVQLKESGPGLVAPSQSLSITCTVSGFSLTSYGVSWVRQPPGKGLECLGVIWAGGNTNYNSALMSRLSISKDKSKSQVFLKMNSLQTDDTAMYYCARVYYGNAMDYWGQGTSVTVSS VL: DIVMTQSPSSLTVTAGEKVTMSCKSSQSLLNSGNQKSYLTWYQQRPGQPPKLLIYWASTRESGVPDRFTGSGSGTDFTLTISSVQAEDLAVYFCQNVYFFPFTFGSGTKLETK
1.07 nM	181C7B2 (antibody, V domains shown, mouse hybridoma mAb) VH: QVQLKQSGPGLVQPSQSLSITCTVSGFSLTYYGVHWVRQSPGKGLEWLGVIWRGGNTDYNAAFISRLSINKDNSKSQVFFKMNSLQPNDTAIYYCARAAYYGNCFDYWGQGTTLTVSS VL: DIVMTQSPSSLTVTAGEKVTMSCKSSQSLLNSGNQKNYLTWYQQKPGQPPKLLIYWASTRESGVPDRFTGSGSGTDFTLTISSVQAEDLAVYYCQNNYIYPLTFGAGTKLELK
